In PMC9750158 (Science Advances, 2022):
Each block holds one binder with its values, some of them ahead of it.

How the values were obtained:
WAVE1(1-230) = biological target: T1, WAVE1(1-230) (human, UniProt Q92558 1-230); assay: reconstitution and co-purification of subcomplexes and pentamer
T1 sequence: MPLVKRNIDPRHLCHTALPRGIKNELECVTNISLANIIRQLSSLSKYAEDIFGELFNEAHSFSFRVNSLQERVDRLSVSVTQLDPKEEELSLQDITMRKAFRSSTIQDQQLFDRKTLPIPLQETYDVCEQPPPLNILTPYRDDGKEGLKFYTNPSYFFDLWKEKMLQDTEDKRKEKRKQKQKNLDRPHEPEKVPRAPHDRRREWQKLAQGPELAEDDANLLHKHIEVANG

Sra1/Nap1 dimer = Sra1/Nap1 dimer (human, UniProt Q7L576;Q9Y2A7); assay: as above
[1] = biological target: ∆WRC230 with Sra1 W845A/Y849A (∆M#3) (human, UniProt Q7L576;Q9Y2A7;Q92558;Q9NYB9;Q8WUW1, W845A | Y849A); assay: pull-down
Sra1 = Sra1 (human, UniProt Q7L576 1-1253); assay: reconstitution and co-purification of subcomplexes and pentamer
Chain of Sra1 (Q7L576 whole entry): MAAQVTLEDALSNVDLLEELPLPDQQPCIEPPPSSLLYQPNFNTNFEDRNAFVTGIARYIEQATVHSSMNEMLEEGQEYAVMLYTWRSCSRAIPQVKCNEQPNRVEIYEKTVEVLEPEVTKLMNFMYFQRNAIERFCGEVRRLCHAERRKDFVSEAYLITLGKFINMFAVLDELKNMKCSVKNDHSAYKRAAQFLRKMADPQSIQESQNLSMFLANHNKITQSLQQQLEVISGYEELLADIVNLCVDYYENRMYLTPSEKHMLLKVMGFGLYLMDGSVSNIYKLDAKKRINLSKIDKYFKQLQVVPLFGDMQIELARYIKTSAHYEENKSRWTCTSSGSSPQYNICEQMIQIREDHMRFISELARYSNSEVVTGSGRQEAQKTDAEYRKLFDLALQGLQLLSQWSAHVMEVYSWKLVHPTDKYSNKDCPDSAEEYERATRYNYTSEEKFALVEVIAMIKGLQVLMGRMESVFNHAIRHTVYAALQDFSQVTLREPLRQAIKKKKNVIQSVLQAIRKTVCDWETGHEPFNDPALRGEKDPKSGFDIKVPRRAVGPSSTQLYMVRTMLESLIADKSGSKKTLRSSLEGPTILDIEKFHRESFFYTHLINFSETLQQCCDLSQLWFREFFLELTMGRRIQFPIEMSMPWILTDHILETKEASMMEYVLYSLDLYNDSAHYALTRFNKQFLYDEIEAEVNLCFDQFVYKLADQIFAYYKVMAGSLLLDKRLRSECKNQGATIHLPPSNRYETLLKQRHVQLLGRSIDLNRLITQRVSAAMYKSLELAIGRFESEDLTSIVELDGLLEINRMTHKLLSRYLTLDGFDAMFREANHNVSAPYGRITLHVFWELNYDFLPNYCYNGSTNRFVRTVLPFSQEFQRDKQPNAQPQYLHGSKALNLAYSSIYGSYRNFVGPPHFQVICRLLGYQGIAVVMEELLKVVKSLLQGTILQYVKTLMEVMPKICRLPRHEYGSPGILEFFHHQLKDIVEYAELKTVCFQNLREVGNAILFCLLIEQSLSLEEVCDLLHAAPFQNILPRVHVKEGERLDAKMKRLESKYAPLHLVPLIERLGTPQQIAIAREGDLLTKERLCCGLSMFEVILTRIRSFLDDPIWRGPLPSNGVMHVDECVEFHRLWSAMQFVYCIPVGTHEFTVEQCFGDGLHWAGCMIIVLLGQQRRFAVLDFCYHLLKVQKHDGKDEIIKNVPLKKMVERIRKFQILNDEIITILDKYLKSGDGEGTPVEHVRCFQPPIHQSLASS

Chain of ∆WRC230 with Sra1 W845A/Y849A (∆M#3) (Q7L576 whole entry W845A/Y849A, one chain of several): as the sequence (Q7L576 whole entry) above, with W845A, Y849A counted along it
Chain of Sra1/Nap1 dimer (Q7L576 whole entry, one chain of several): as the sequence (Q7L576 whole entry) above

B1: Abi2(1-158) (domain or fragment)
chain: MAELQMLLEEEIPGGRRALFDSYTNLERVADYCENNYIQSADKQRALEETKAYTTQSLASVAYLINTLANNVLQMLDIQASQLRRMESSINHISQTVDIHKEKVARREIGILTTNKNTSRTHKIIAPANLERPVRYIRKPIDYTILDDIGHGVKWLLR
binding result (WAVE1(1-230)): binds

B2: WAVE1(1-230)/Abi2(1-158)/HSPC300 trimer (complex)
chain 1: T1 sequence
chain 2: B1 chain
chain 3: MAGQEDPVQREIHQDWANREYIEIITSSIKKIADFLNSFDMSCRSRLATLNEKLTALERRIEYIEARVTKGETLT
binding result (Sra1/Nap1 dimer): binds

Next, values leading:

binding result (WAVE1(1-230)): binds
B3: HSPC300 (natural protein)
chain: B2 chain 3

binding result [1]: binds
B4: GST-Arf1 (Arf1^∆N17) (natural protein)
chain: not shown

binding result (Sra1): binds
B5: Nap1 (natural protein)
chain: MSRSVLQPSQQKLAEKLTILNDRGVGMLTRLYNIKKACGDPKAKPSYLIDKNLESAVKFIVRKFPAVETRNNNQQLAQLQKEKSEILKNLALYYFTFVDVMEFKDHVCELLNTIDVCQVFFDITVNFDLTKNYLDLIITYTTLMILLSRIEERKAIIGLYNYAHEMTHGASDREYPRLGQMIVDYENPLKKMMEEFVPHSKSLSDALISLQMVYPRRNLSADQWRNAQLLSLISAPSTMLNPAQSDTMPCEYLSLDAMEKWIIFGFILCHGILNTDATALNLWKLALQSSSCLSLFRDEVFHIHKAAEDLFVNIRGYNKRINDIRECKEAAVSHAGSMHRERRKFLRSALKELATVLSDQPGLLGPKALFVFMALSFARDEIIWLLRHADNMPKKSADDFIDKHIAELIFYMEELRAHVRKYGPVMQRYYVQYLSGFDAVVLNELVQNLSVCPEDESIIMSSFVNTMTSLSVKQVEDGEVFDFRGMRLDWFRLQAYTSVSKASLGLADHRELGKMMNTIIFHTKMVDSLVEMLVETSDLSIFCFYSRAFEKMFQQCLELPSQSRYSIAFPLLCTHFMSCTHELCPEERHHIGDRSLSLCNMFLDEMAKQARNLITDICTEQCTLSDQLLPKHCAKTISQAVNKKSKKQTGKKGEPEREKPGVESMRKNRLVVTNLDKLHTALSELCFSINYVPNMVVWEHTFTPREYLTSHLEIRFTKSIVGMTMYNQATQEIAKPSELLTSVRAYMTVLQSIENYVQIDITRVFNNVLLQQTQHLDSHGEPTITSLYTNWYLETLLRQVSNGHIAYFPAMKAFVNLPTENELTFNAEEYSDISEMRSLSELLGPYGMKFLSESLMWHISSQVAELKKLVVENVDVLTQMRTSFDKPDQMAALFKRLSSVDSVLKRMTIIGVILSFRSLAQEALRDVLSYHIPFLVSSIEDFKDHIPRETDMKVAMNVYELSSAAGLPCEIDPALVVALSSQKSENISPEEEYKIACLLMVFVAVSLPTLASNVMSQYSPAIEGHCNNIHCLAKAINQIAAALFTIHKGSIEDRLKEFLALASSSLLKIGQETDKTTTRNRESVYLLLDMIVQESPFLTMDLLESCFPYVLLRNAYHAVYKQSVTSSA
